Consider one molecule from paper PMC5762688 (Scientific Reports, 2018).

In the assay the target is Importin α2/β1 heterodimer (mouse), tagless recombinant, preformed (mouse, UniProt P52293 1-529; P70168 1-876). As to the kind of experiment: […]; 10 mM Tris, 150 mM NaCl, 10% glycerol, 0.75 mM TCEP, pH 8.0; […]. To be noted: both partners purified.

B1: Hendra virus V protein residues 1-405, tagless recombinant (domain or fragment)
chain: MDKLDLVNDGLDIIDFIQKNQKEIQKTYGRSSIQQPSTKDRTRAWEDFLQSTSGEHEQAEGGMPKNDGGTEGRNVEDLSSVTSSDGTIGQRVSNTRAWAEDPDDIQLDPMVTDVVYHDHGGECTGHGPSSSPERGWSYHMSGTHDGNVRAVPDTKVLPNAPKTTVPEEVREIDLIGLEDKFASAGLNPAAVPFVPKNQSTPTEEPPVIPEYYYGSGRRGDLSKSPPRGNVNLDSIKIYTSDDEDENQLEYEDEFAKSSSEVVIDTTPEDNDSINQEEVVGDPSDQGLEHPFPLGKFPEKEETPDVRRKDSLMQDSCKRGGVPKRLPMLSEEFECSGSDDPIIQELEREGSHPGGSLRLREPPQSSGNSRNQPDRQLKTGDAASPGGVQRPGTPMPKSRIMPIKKG
Consider B1, for which the binding result is recorded as “binds”.
